From article PMC9136605 (Acta Pharmaceutica Sinica. B, 2021) come the findings set out here.

This series deals with the molecule itself. The series can be described thus: crystal structure.

B1: human LDHC L56E/I332Q double mutant (LDHC-mutant), recombinant with C-terminal His6-tag (enzyme)
chain: not shown
As to B1, the stoichiometry N (in general, a count of units in the complex or per binding partner) came to 4.
